Assay results as given in article PMC3544828.

Columns and labels:
[1] = target: T1, Rex (Staphylococcus aureus COL) (UniProt Q5HEF5); test: EMSA; details: Room temperature, 15 min, 250 fmol each of specific and non-specific probe; protein stock in 10 mM Tris-HCl pH 7.5, 100 mM NaCl, 10% glycerol (binding buffer …)
T1 sequence: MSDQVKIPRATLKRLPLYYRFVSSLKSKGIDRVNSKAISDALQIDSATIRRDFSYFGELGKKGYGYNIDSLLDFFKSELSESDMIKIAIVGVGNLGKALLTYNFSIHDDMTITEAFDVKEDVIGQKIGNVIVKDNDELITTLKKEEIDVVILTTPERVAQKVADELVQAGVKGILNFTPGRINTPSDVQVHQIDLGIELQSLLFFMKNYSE

[2] = target: T2, CcpA (Staphylococcus aureus COL) (UniProt Q5HF38); test: EMSA; details: Room temperature, 15 min, 250 fmol each of specific and non-specific probe; protein stock in 10 mM Tris-HCl pH 7.5, 100 mM NaCl, 10% glycerol (binding buffer …)
T2 sequence: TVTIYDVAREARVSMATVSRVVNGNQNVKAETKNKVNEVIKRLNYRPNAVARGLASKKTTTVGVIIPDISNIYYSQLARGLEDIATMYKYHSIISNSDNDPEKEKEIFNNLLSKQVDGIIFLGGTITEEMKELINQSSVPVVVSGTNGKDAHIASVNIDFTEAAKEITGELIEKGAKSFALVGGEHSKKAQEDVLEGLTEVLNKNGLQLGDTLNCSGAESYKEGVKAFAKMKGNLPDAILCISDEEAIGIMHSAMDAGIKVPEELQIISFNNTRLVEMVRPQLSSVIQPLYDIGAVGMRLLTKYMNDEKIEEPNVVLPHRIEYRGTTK

Row | Sequence | binding [1] | binding [2]
1 | CGCATAACTTAAAAGGTCATGTGTCATCCGCTTTTAAGTTTGTGATTTATTTCACATATAAAATGTAACATGCATTAAGTACTGGGTCAATATTAAATTGTGATTTATTTCACATTTTATTTTAATTTTTACACCTTTTTAATTTGTATACGATTACATCTTAGATGTCTTTAGTCTTCGTACTTCGCCAGTGATTATTTACAC (double strand) [Pldh1 promoter fragment] | binds | no binding
2 | CTCCCCTTTTCATCATTTATAACTATTATACATGAAACATTATCCAAATAATTACATTAGTTTTCAAAGCAGATACTTTTCCACCAAAAAAGATGAAATAATCACTAAGTTTCATTAAATTTGTCTATTTTGAAAACCCTTACATTTATAATGACATAATTACTTAAATGATTACAAGCAAAAGAATTGATAATTTTACACTTAATC (double strand) [ProcD2 promoter fragment] |  | binds
